Experimental data as given in publication PMC8153938 (ACS Omega, 2021).

B1: PKR R107A (enzyme, human, UniProt P19525 1-551, looked up)
chain: MAGDLSAGFFMEELNTYRQKQGVVLKYQELPNSGPPHDRRFTFQVIIDGREFPEGEGRSKKEAKNAAAKLAVEILNKEKKAVSPLLLTTTNSSEGLSMGNYIGLINAIAQKKRLTVNYEQCASGVHGPEGFHYKCKMGQKEYSIGTGSTKQEAKQLAAKLAYLQILSEETSVKSDYLSSGSFATTCESQSNSLVTSTLASESSSEGDFSADTSEINSNSDSLNSSSLLMNGLRNNQRKAKRSLAPRFDLPDMKETKYTVDKRFGMDFKEIELIGSGGFGQVFKAKHRIDGKTYVIKRVKYNNEKAEREVKALAKLDHVNIVHYNGCWDGFDYDPETSDDSLESSDYDPENSKNSSRSKTKCLFIQMEFCDKGTLEQWIEKRRGEKLDKVLALELFEQITKGVDYIHSKKLIHRDLKPSNIFLVDTKQVKIGDFGLVTSLKNDGKRTRSKGTLRYMSPEQISSQDYGKEVDLYALGLILAELLHVCDTAFETSKFFTDLRDGIISDIFDKKEKTLLQKLLSKKPEDRPNTSEILRTLTVWKKSPEKNERHTC

What was measured:
[1] = molecular target: Unphosphorylated human Protein kinase R (PKR), wild type (human) (UniProt P19525); assay: AUC
[2] = molecular target: the molecule itself; assay: AUC

Molecule | Kd [1] | Kd [2]
Unphosphorylated human Protein kinase R (PKR), wild type (from UniProt P19525 1-551) (enzyme) | 702 µM | –
B1 | – | 704 µM
